Data from patent publication US10654896B2, “FoxP3-binding peptides and uses thereof” (FUNDACIÓN PARA LA INVESTIGACIÓN MÉDICA APLICADA, priority 2016, dated 2020).
Where a SMILES comes first, the peptide text is derived from it. Where no end group is shown, it is not given here. [ ]: non-standard residue; d: D form.

Molecular target: T1, human FOXP3 (FOXP3-6His) (Homo sapiens, UniProt Q9BZS1)
T1 construct: 6xHis (C); made in house; host or cells: E. coli BL21 (DE3)
T1 sequence (Q9BZS1 1-431): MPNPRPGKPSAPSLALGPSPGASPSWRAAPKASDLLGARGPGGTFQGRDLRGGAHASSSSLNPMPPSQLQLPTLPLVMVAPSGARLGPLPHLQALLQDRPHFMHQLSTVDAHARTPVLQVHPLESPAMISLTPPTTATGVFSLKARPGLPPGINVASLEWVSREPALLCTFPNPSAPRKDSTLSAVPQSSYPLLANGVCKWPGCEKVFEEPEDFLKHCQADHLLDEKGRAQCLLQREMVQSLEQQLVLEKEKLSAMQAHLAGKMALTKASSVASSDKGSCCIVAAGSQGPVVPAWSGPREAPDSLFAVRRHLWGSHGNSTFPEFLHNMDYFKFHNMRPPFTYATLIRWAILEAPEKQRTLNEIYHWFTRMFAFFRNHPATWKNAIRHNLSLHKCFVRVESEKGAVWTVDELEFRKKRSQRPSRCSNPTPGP
Assay: Peptide binding to FOXP3 by surface plasmon resonance (SPR)
Conditions: not given
Source text: Plasmid pET20b FOXP3-His was generated to produce the human FOXP3 tagged with 6 histidines at the C terminus of the protein. Briefly, plasmid pDEST15-FOXP3 (provided by Dr. Casal, Madrid, Spain) was used as template to amplify FOXP3 by PCR using the primers Upper FOXP3 Ndel catatgcccaaccccaggc (SEQ ID NO: 55) and Lower FOXP3 […] (SEQ ID NO: 56). The resulting fragment was subcloned in pET20b at Ndel and NotI sites. pET45b His-Runx1 was obtained by PCR of activated human CD4 T cells obtained from healthy volunteers (after the signature of an informed consent) using the primers Upper Runx1 atgcgtatccccgtagatg (SEQ ID NO: 57) and Lower Runx1 […] (SEQ ID NO: 58) and the fragment was cloned in pcDNA3.1. Then, pET45b and pcDNA3.1-Runx1 were digested with BamHI and NotI and ligated to obtain pET45b-Runx1. Plasmids were used to transform BL21 cells (DE3; Novagen, Schwalbach, Germany) for the expression of the recombinant protein. The transformed BL21 cells were grown in LB medium at 37° C. (1 liter of final culture medium) (with ampicilin 0.1 mg/ml). Once the OD of the culture was between 0.5 and 1.0, IPTG (0.4 mM, final concentration) was added. Bacteria were then cultured overnight in agitation and centrifuged for 10 min at 8000 rpm. Cell pellet was then resuspended in 4 ml Tris-HCl 0.1 M and frozen at −80° C. Cell pellet was then thawed and incubated with lisozyme (25 KU) and a protease inhibitor cocktail for 15 min at 30° C. before cell lysis induced with a French-press. The resultant pool was then centrifuged during 20 min at 11.000 rpm). The recombinant protein was purified from the soluble fraction of French-press cell extracts by affinity chromatography (Histrap, Pharmacia) following manufacturer's instructions and using an FPLC platform (AKTA, Pharmacia). Plasmid pDEST15-FOXP3 encoding the fusion protein GST-FOXP3 (GST fused to the isoform A from human FOXP3 gene), was transformed into BL21 cells for the expression of the recombinant protein. GST-FOXP3 protein was purified from the soluble fraction of cell extracts obtained, as described above, by affinity chromatography (GSTrap; Amersham, Piscataway, N.J.) using a fast protein liquid chromatography platform (AKTA; Amersham) following manufacturer's instructions. The eluted proteins were desalted using Hitrap desalting columns (Pharmacia) and analyzed by SDS-PAGE using Coomassie blue (Bio-Safe Coomassie reagent; Bio-Rad, Hercules, Calif.) and by Western blot.
Screening of peptide binding to FOXP3 was performed by surface plasmon resonance (SPR) using ProteOn XPR36 (Bio-Rad, Hercules Calif., USA) optical biosensor. Recombinant protein FOXP3-6His was produced and purified from E. coli as disclosed in previous section and was immobilized covalently onto a GLM sensor chip (176-5012, Bio-Rad) using sulfo-NHS and EDC (Bio-Rad) coupling reagents and the manufacturer's instructions. After protein immobilization, chip surface was treated with ethanolamine to deactivate the excess of reactive esters.
Individual solutions of the peptides to be tested (1-20 μM) were injected by triplicate in running buffer (Phosphate buffered saline, 0.005% (v/v) Tween 20, pH 7.4) at a flow of 30 μl/min. The interspot signal (obtained in the chip surface not immobilized with protein) was used as reference. The results are summarized in Table 6 below as the ratio Peptide of the invention/p60.

Row | Molecule | increase in the binding to FoxP3 with respect to p60 (SEQ ID NO: 1)
1 | RAFQAFRKMWPFFAM [SEQ ID NO: 42] (H-RAFQAFRKMWPFFAM-OH) | about 400%
2 | RDFQSFRKMWPFFAM (cyclo(RDFQSFRKMWPFFAM); also: R1 and R2 form a linker birradical which is -C(=O)-) [SEQ ID NO: 49, head-to-tail cyclic peptide] | about 500%

Same assay, conditions: peptides 1-20 μM; ratio to p60 (SEQ ID NO: 1)

Row | Binding to Foxp3 Ratio binding Peptide/p60 (fold change) | Molecule
3 | 3.3 fold change | 6 (R[dA]FQSFRKMWPFFAM) [compound 6]
4 | 1.4 fold change | 7 (RSFQSFRKMWPFFAM) [compound 7]
5 | 1.4 fold change | 8 (RYFQSFRKMWPFFAM) [compound 8]
6 | 1.4 fold change | 11 (RNFQSFRKMWPFFAM) [compound 11]
7 | 2.2 fold change | 12 (RKFQSFRKMWPFFAM) [compound 12]
8 | 3.7 fold change | 16 (RDWQSFRKMWPFFAM) [compound 16]
9 | 3.7 fold change | 20 (RDFQRFRKMWPFFAM) [compound 20]
10 | 3.2 fold change | 21 (RDFQNFRKMWPFFAM) [compound 21]
11 | 2.4 fold change | 22 (RDFQWFRKMWPFFAM) [compound 22]
12 | 1.3 fold change | 23 (RDFQEFRKMWPFFAM) [compound 23]
13 | 2.6 fold change | 28 (RDFQSFRHMWPFFAM) [compound 28]
14 | 1.4 fold change | 29 (RDFQSFRRMWPFFAM) [compound 29]
15 | 2.8 fold change | 31 (RDFQSFRKMWRFFAM) [compound 31]
16 | 1.4 fold change | 32 (RDFQSFRKMWNFFAM) [compound 32]
17 | 1.3 fold change | 33 (RDFQSFRKMWVFFAM) [compound 33]
18 | 4.1 fold change | 37 (RDFQSFRKMWKFFAM) [compound 37]
19 | 1.1 fold change | 38 (RDFQSFRKMWAFFA[dM]-NH2; not fully specified (N-terminus)) [compound 38]
20 | 2.2 fold change | 40 (RDFQSFRKMW[dA]FFAM-NH2; not fully specified (N-terminus)) [compound 40]
21 | 4.1 fold change | 42 (H-RAFQAFRKMWPFFAM-OH) [compound 42]

Continued, molecule first:

Row | Molecule | Binding to Foxp3 Ratio binding Peptide/p60 (fold change)
22 | 17 (RDYQSFRKMWPFFAM) [compound 17] | 3.3 fold change
23 | 18 (RDLQSFRKMWPFFAM) [compound 18] | 1.9 fold change
24 | 24 (RDFQYFRKMWPFFAM) [compound 24] | 4.6 fold change
25 | 25 (RDFQKFRKMWPFFAM) [compound 25] | 4.0 fold change
26 | 35 (RDFQSFRKMWYFFAM) [compound 35] | 1.3 fold change
27 | 39 (RDFQ[dA]FRKMWPFFAM-NH2; not fully specified (N-terminus)) [compound 39] | 3.3 fold change
28 | 43 (R[dA]FQ[dA]FRKMWPFFAM-NH2; not fully specified (N-terminus)) [compound 43] | 4.9 fold change
29 | 44 (RAFQSFRKMWAFFAM-NH2; not fully specified (N-terminus)) [compound 44] | 3.0 fold change
30 | 49 (cyclo(RDFQSFRKMWPFFAM); also: R1 and R2 form a linker birradical which is -C(=O)-) [compound 49] | 5.0 fold change
31 | CSCC[C@H](NC(=O)[C@H](C)NC(=O)[C@H](Cc1ccccc1)NC(=O)[C@H](Cc1ccccc1)NC(=O)[C@@H]1CCCN1C(=O)[C@H](Cc1c[nH]c2ccccc12)NC(=O)[C@H](CCSC)NC(=O)[C@H](CCCCN)NC(=O)[C@H](CCCNC(=N)N)NC(=O)[C@H](Cc1ccccc1)NC(=O)[C@H](CO)NC(=O)[C@H](CCC(N)=O)NC(=O)[C@H](Cc1ccccc1)NC(=O)[C@@H](CC(=O)O)NC(=O)[C@H](CCCNC(=N)N)NC(=O)CNC(C)=O)C(N)=O [compound 4] (Ac-GR[dD]FQSFRKMWPFFAM-NH2; C-terminus assumed) | 4.2 fold change
32 | Ac-GRAFQSFRKMWPFFAM-NH2 (C-terminus assumed) [compound 13] | 3.2 fold change

Test system: not listed separately
Assay: Human liver microsomal stability
Type: in vitro ADME
Conditions: human liver microsomes, 20 min; read-out: % Remaining after 20 min
Method: (§1) The data collected were analyzed to calculate a half-life (t1/2, min) for tested peptides at a final concentration of 1 μM. Briefly, 5 μL of stock solution of tested peptide (10 mM) were diluted in 495 μL of 1:1 Methanol/Water (final concentration of 100 μM, 50% MeOH). Then, 50 μL of this intermediate solution were diluted in 450 μL of 100 mM potassium phosphate buffer to a concentration of 10 μM (working solution, 5% MeOH). The NADPH regenerating system contains β-Nicotinamide adenine dinucleotide phosphate (Sigma, Cat. # N0505), Isocitric acid (Sigma, Cat. #11252) and Isocitric dehydrogenase (Sigma, Cat. #12002) at a final concentration of 1 unit/mL at incubation.
(§2) Human liver microsomes were obtained from BD Gentest (Cat. #452117) and mouse liver microsomes from Xenotech (Cat. # M1000), to a final concentration of 0.7 mg protein/mL. A volume of 10 μL of peptide solution and 80 μL of microsome solution were added to a 96-well plate and incubated for 10 min at 37° C. The reaction was started by the addition of 10 μL of NADPH regenerating system and stopped by the addition of 300 μL of stop solution (ACN at 4° C., including 100 ng/mL Tolbutamide and 100 ng/mL of Labetalol as internal standard) at different incubation times (0, 5, 10, 20, 30 and 60 min). Concentrations of test compound were quantified by LC-MS/MS methodologies (Shimadzu LC 20-AD/API4000) using peak area ratio of analyte/internal standard and the percent loss of parent compound was calculated under each time point to determine the half-life.

Row | Molecule | remaining at 20 min, 1 μM
33 | CSCC[C@@H]1NC(=O)[C@H](C)NC(=O)[C@H](Cc2ccccc2)NC(=O)[C@H](Cc2ccccc2)NC(=O)[C@@H]2CCCN2C(=O)[C@H](Cc2c[nH]c3ccccc23)NC(=O)[C@H](CCSC)NC(=O)[C@H](CCCCN)NC(=O)[C@H](CCCNC(=N)N)NC(=O)[C@H](Cc2ccccc2)NC(=O)[C@H](C)NC(=O)[C@H](CCC(N)=O)NC(=O)[C@H](Cc2ccccc2)NC(=O)[C@@H](C)NC(=O)[C@H](CCCNC(=N)N)NC1=O [compound 51] (cyclo(R[dA]FQAFRKMWPFFAM)) | 48.7%

Same assay, conditions: human liver microsomes, 60 min; read-out: % Remaining after 60 min

Row | Molecule | remaining at 1 h, 1 μM
34 | CSCC[C@@H]1NC(=O)[C@H](C)NC(=O)[C@H](Cc2ccccc2)NC(=O)[C@H](Cc2ccccc2)NC(=O)[C@@H]2CCCN2C(=O)[C@H](Cc2c[nH]c3ccccc23)NC(=O)[C@H](CCSC)NC(=O)[C@H](CCCCN)NC(=O)[C@H](CCCNC(=N)N)NC(=O)[C@H](Cc2ccccc2)NC(=O)[C@H](C)NC(=O)[C@H](CCC(N)=O)NC(=O)[C@H](Cc2ccccc2)NC(=O)[C@@H](C)NC(=O)[C@H](CCCNC(=N)N)NC1=O [compound 51] (cyclo(R[dA]FQAFRKMWPFFAM)) | 46.1%

Same assay, conditions: human liver microsomes, peptide 1 μM; read-out: t1/2

Row | Molecule | half-life
35 | CSCC[C@@H]1NC(=O)[C@H](C)NC(=O)[C@H](Cc2ccccc2)NC(=O)[C@H](Cc2ccccc2)NC(=O)[C@@H]2CCCN2C(=O)[C@H](Cc2c[nH]c3ccccc23)NC(=O)[C@H](CCSC)NC(=O)[C@H](CCCCN)NC(=O)[C@H](CCCNC(=N)N)NC(=O)[C@H](Cc2ccccc2)NC(=O)[C@H](C)NC(=O)[C@H](CCC(N)=O)NC(=O)[C@H](Cc2ccccc2)NC(=O)[C@@H](C)NC(=O)[C@H](CCCNC(=N)N)NC1=O [compound 51] (cyclo(R[dA]FQAFRKMWPFFAM)) | 61.7 min

Test system: not listed separately
Assay: Mouse liver microsomal stability
Type: in vitro ADME
Conditions: mouse liver microsomes, 20 min; read-out: % Remaining after 20 min
Method: as §1, §2

Row | Molecule | remaining at 20 min, 1 μM
36 | CSCC[C@@H]1NC(=O)[C@H](C)NC(=O)[C@H](Cc2ccccc2)NC(=O)[C@H](Cc2ccccc2)NC(=O)[C@@H]2CCCN2C(=O)[C@H](Cc2c[nH]c3ccccc23)NC(=O)[C@H](CCSC)NC(=O)[C@H](CCCCN)NC(=O)[C@H](CCCNC(=N)N)NC(=O)[C@H](Cc2ccccc2)NC(=O)[C@H](C)NC(=O)[C@H](CCC(N)=O)NC(=O)[C@H](Cc2ccccc2)NC(=O)[C@@H](C)NC(=O)[C@H](CCCNC(=N)N)NC1=O [compound 51] (cyclo(R[dA]FQAFRKMWPFFAM)) | 62.7%

Same assay, conditions: mouse liver microsomes, 60 min; read-out: % Remaining after 60 min

Row | Molecule | remaining at 1 h, 1 μM
37 | CSCC[C@@H]1NC(=O)[C@H](C)NC(=O)[C@H](Cc2ccccc2)NC(=O)[C@H](Cc2ccccc2)NC(=O)[C@@H]2CCCN2C(=O)[C@H](Cc2c[nH]c3ccccc23)NC(=O)[C@H](CCSC)NC(=O)[C@H](CCCCN)NC(=O)[C@H](CCCNC(=N)N)NC(=O)[C@H](Cc2ccccc2)NC(=O)[C@H](C)NC(=O)[C@H](CCC(N)=O)NC(=O)[C@H](Cc2ccccc2)NC(=O)[C@@H](C)NC(=O)[C@H](CCCNC(=N)N)NC1=O [compound 51] (cyclo(R[dA]FQAFRKMWPFFAM)) | 47.7%

Same assay, conditions: mouse liver microsomes, peptide 1 μM

Row | Molecule | half-life
38 | CSCC[C@@H]1NC(=O)[C@H](C)NC(=O)[C@H](Cc2ccccc2)NC(=O)[C@H](Cc2ccccc2)NC(=O)[C@@H]2CCCN2C(=O)[C@H](Cc2c[nH]c3ccccc23)NC(=O)[C@H](CCSC)NC(=O)[C@H](CCCCN)NC(=O)[C@H](CCCNC(=N)N)NC(=O)[C@H](Cc2ccccc2)NC(=O)[C@H](C)NC(=O)[C@H](CCC(N)=O)NC(=O)[C@H](Cc2ccccc2)NC(=O)[C@@H](C)NC(=O)[C@H](CCCNC(=N)N)NC1=O [compound 51] (cyclo(R[dA]FQAFRKMWPFFAM)) | 63.8 min
